Measured values from patent publication US20040260069A1 (Merck KGaA, published 2004).

What was measured:
biotinylated TNF alpha = target: T1, biotinylated TNF alpha (human, UniProt P01375 77-233, biotinylated using EZ link Sulfo-NHS-biotin (sites not given)); experiment: competition ELISA, antibody against plate-bound TNF alpha RII-Fc for biotin-TNF alpha
T1 construct: also called biotin-TNF alpha

[1] = target: T2, TNF alpha (PeproTech EC Ltd, London, UK) (human, UniProt P01375 77-233); experiment: plate ELISA, TNF alpha coated at 2.5 µg/ml, anti-human IgG-HRP detection
T2 construct: also called tumor necrosis factor alpha
T2 sequence (P01375 77-233 limits assumed): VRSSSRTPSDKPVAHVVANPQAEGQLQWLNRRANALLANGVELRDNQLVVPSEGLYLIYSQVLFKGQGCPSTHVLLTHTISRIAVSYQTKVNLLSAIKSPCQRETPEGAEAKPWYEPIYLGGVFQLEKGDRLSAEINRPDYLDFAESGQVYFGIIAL

T1 sequence (P01375 77-233 limits assumed): as above

binding result (biotinylated TNF alpha): binds
binding result [1]: binds
B1: modified anti-TNF alpha antibody Vh5/Vk12 (antibody, human IgG1, V domains shown)
VH: EVKLEESGGGLVQPGGSLRLSCAASGFTFSNHWMNWVRQSPEKGLEWVAETRSKSTNSATHYAESVKGRFTISRDDSKNSLYLQMNSLKTEDTGVYYCSRNYYGSTYDYWGQGTTVTVSS
VL: DIQLTQSPDTSSASPGERASFSCRASQFVGSSIHWYQHTTNGSPRLLIKYASESMSGVPSRFSGSGSGTDFTLTINSLEAEDAATYYCQQSHSWPFTFGSGTNLEVKR
notes: Expressed in NS/0 cells as whole antibody with a human IgG1 constant region (vector pSVgpt) and a human kappa constant region (vector pSVhyg); also called modified antibody of the invention; preferred antibody of the present invention
